In patent US9809833B2, “Pathways to adipate semialdehyde and other organic products” (BioAmber Inc., priority 2012, dated 2017):

B1: phaA: acyltransferase, E. coli optimized PhaA sequence originally from Ralstonia sp., EC 2.3.1.9, SEQ ID NOS 3 and 4 (protein)
chain: MTDVVIVSAARTAVGKFGGSLAKIPAPELGAVVIKAALERAGVKPEQVSEVIMGQVLTAGSGQNPARQAAIKAGLPAMVPAMTINKVCGSGLKAVMLAANAIMAGDAEIVVAGGQENMSAAPHVLPGSRDGFRMGDAKLVDTMIVDGLWDVYNQYHMGITAENVAKEYGITREAQDEFAVGSQNKAEAAQKAGKFDEEIVPVLIPQRKGDPVAFKTDEFVRQGATLDSMSGLKPAFDKAGTVTAANASGLNDGAAAVVVMSAAKAKELGLTPLATIKSYANAGVDPKVMGMGPVPASKRALSRAEWTPQDLDLMEINEAFAAQALAVHQQMGWDTSKVNVNGGAIAIGHPIGASGCRILVTLLHEMKRRDAKKGLASLCIGGGMGVALAVERK
modifications: Ralstonia sp., strain EMBL EON20543.1
B2: bktB: Beta-ketothiolase, E. coli optimized bktB sequence originally from Cupriavidus necator ATCC 17699, SEQ ID NOS 1 and 2 (protein)
chain: MTREVVVVSGVRTAIGTFGGSLKDVAPAELGALVVREALARAQVSGDDVGHVVFGNVIQTEPRDMYLGRVAAVNGGVTINAPALTVNRLCGSGLQAIVSAAQTILLGDTDVAIGGGAESMSRAPYLAPAARWGARMGDAGLVDMMLGALHDPFHRIHMGVTAENVAKEYDISRAQQDEAALESHRRASAAIKAGYFKDQIVPVVSKGRKGDVTFDTDEHVRHDATIDDMTKLRPVFVKENGTVTAGNASGLNDAAAAVVMMERAEAERRGLKPLARLVSYGHAGVDPKAMGIGPVPATKIALERAGLQVSDLDVIEANEAFAAQACAVTKALGLDPAKVNPNGSGISLGHPIGATGALITVKALHELNRVQGRYALVTMCIGGGQGIAAIFERI
modifications: Cupriavidus necator

Assays:
[1] = In vitro DTNB thiolase activity assay on clarified cell lysates, crotonoyl-CoA substrate; format: biochemical; conditions: lysate of BL21 E. coli expressing the thiolase; 0.5 mM crotonoyl-CoA, 0.2 mM acetyl-coA, 0.5 mM DTNB, pH 7.4, 412 nm; 60 sec incubation before measurement; no-substrate background subtracted; triplicate
Description: (§1) Plasmids containing the optimized thiolase genes were transformed into BL21 E. coli cells. Empty plasmid pTrcHisA was also transformed as a negative control. For expression and characterization experiments, shake flasks containing 40 mL TB were innoculated at 5% from overnight cultures. Flasks were incubated at 30° C. at 250 rpm shaking for 2 hours, then protein production was induced with 0.2 mM IPTG and incubated for 4 more hours at 30° C. while shaking. Cells were harvested by centrifugation and pellets were stored at −80° C.
(§2) Activity of thiolase candidates were assessed with an in vitro assay using DTNB (5,5′-Dithiobis(2-nitrobenzoic acid)) as an indicator. The enzyme activity was tested using two different substrates: crotonoyl-CoA and butyryl-CoA. The DTNB interacts with the free thiol created by the condensation of acetyl-CoA and the substrate present (butyryl-CoA or crotonoyl-CoA). Unless otherwise specified, all chemicals were purchased from Sigma-Aldrich Chemical Company, ST. Louis, Mo.
(§3) Cells were lysed using mechanical disruption using a BeadBeater (BioSpec products, Bartlesville, Okla.) using the manufacturer's instructions. The cell lysate was partially clarified by centrifugation (14,000 G for 5 minutes). Protein concentrations of the resulting clarified lysates were measured via BioRad Total Protein assay using the manufacturer's instructions. Lysates were normalized by protein concentration by dilution in 10 mM Tris buffer. The normalized lysates were diluted 1 to 5 in 10 mM Tris buffer. 20 ul of lysate was added to each well for the 96-well plate assay. Each condition was performed in triplicate.
(§4) The reaction mixture contains 10 mM Tris pH 7.4, 5 mM MgSO4, 0.2 mM acetyl-coA, 0.5 mM DTNB, 0.5 mM substrate (either butyryl-CoA or crotonoyl-CoA). […] The reactions in these microplates were monitored at 412 nm. Readings were taken every 9 seconds for 5 minutes and the data was used to calculate activities of each enzyme. The reactions using crotonoyl-CoA as substrate required a 60 sec incubation period before rates were able to be measured.

[2] = In vitro DTNB thiolase activity assay on clarified cell lysates, butyryl-CoA substrate; format: biochemical; conditions: lysate of BL21 E. coli expressing the thiolase; 0.5 mM butyryl-CoA, 0.2 mM acetyl-coA, 0.5 mM DTNB, pH 7.4, 412 nm; no-substrate background subtracted; triplicate
Description: as §1, §2, §3, §4

Row | Molecule | Average Activity with background subtracted, Crotonoyl coenzyme A [1] [µmol/min/mg] | Average Activity with background subtracted, Butyryl coenzyme A [2] [µmol/min/mg]
1 | thl: acetyl-CoA acetyltransferase, E. coli optimized thl sequence originally from Clostridium acetobutylicum ATCC 824, SEQ ID NOS 5 and 6 | 0.0021 | 0.039
2 | B1 | 0.0001 | 0.053
3 | B2 | 0.0043 | 0.069
